{"source": "patent US6646113", "target": "spliceosomal snRNP core Sm proteins, endogenous in cell extracts", "assay": "co-IP with Y12 from transfected 293T cells, Western blot"}
{"substance": "myc-tagged SMNΔC26 (from UniProt Q16637 1-268)", "values": [{"measurement": "amount co-immunoprecipitated relative to wild-type SMN (fraction of wild type)", "value": 0.33}]}
